According to patent publication US20220064324A1 (US Dept. of Health and Human Services, published 2022):

Legend:
[1] = target: T1, human mesothelin Fragment 1 (residues 296-390) (human, UniProt Q13421 296-390); assay: ELISA on mesothelin Region I, VHH concentration not given
T1 construct: also called Region I
T1 chain: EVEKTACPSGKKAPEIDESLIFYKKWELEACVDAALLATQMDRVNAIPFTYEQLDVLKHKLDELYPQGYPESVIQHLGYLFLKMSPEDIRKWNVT

[2] = target: T2, human mesothelin Region IAB (296-359) (human, UniProt Q13421 296-359); assay: ELISA on mesothelin Region IAB, VHH concentration not given
T2 construct: also called IAB domain
T2 chain: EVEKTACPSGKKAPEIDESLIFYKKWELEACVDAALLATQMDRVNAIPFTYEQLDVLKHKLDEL

[3] = target: T3, human mesothelin Region IAB Y318A mutant (human, UniProt Q13421 296-359); assay: ELISA on Region IAB mutant Y318A, VHH concentration not given
T3 chain: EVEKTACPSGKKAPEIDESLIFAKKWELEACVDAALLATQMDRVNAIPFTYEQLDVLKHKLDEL

B1: G8 camel single-domain (VHH) monoclonal antibody (VHH)
VHH: QVKLEESGGGSVQAGGSLRLSCTTSGYTNSYKWMGWFRQAPGQEREGVAVIYTGNDRTYYSDSVKGRFTISRDNAKNMIYLDMTRLRPEDSAVYECAIGHDGAWRYWGQGTQVTVSS
notes: Isolated from a camel VHH phage display library; also called G8 antibody; G8 anti-mesothelin VHH antibody
B1: binds [1]; binds [2]; no binding [3].

B2: A101 camel single-domain (VHH) monoclonal antibody (VHH)
VHH: QVQLVESGGGTVQAGGSLKLACAASGLPRTYNVMGWFRQAPGKEREGVAIIYTTTGATYYRDSVKGRATISQDNAKKSVSLQMNSLRPEDTAIYYCVARQPNSGPWEYWGQGTQVTVSS
notes: Isolated from a camel VHH phage display library; also called A101 antibody; A101 anti-mesothelin VHH antibody
B2: binds [1]; binds [2]; no binding [3].
